14 sequences from the Immune Epitope Database (IEDB) can be followed below.

One may read the IC50 as the concentration that gives 50% inhibition.

Targets include HLA-B*57:01; HLA-A*02:01; HLA-B*53:01; HLA-B*35:01; HLA-B*44:03; HLA-B*07:02.
Assay in all cases: IEDB peptide-MHC binding, purified MHC/competitive/radioactivity; ≥ and ≤ were set here for values at or beyond the usual limits of such assays
Holding throughout (conditions): source organism: Bordetella pertussis

GAFDLKTTF: the IC50 with HLA-B*57:01 is 50.9 µM.

For the sequence VSSATKAKG, the IC50 with HLA-B*57:01 is at least 70.4 µM.

In the case of ALANDGTIV, in the test with HLA-A*02:01, the IC50 was at least 78.1 µM.

For RSRVRALSW, in the test with HLA-B*57:01, the IC50 came to 0.0584 µM.

Consider DATFQTYAL, for which the values for the concentration for half-maximal inhibition (IC50) with HLA-B*53:01 and in the test with HLA-B*35:01 were 65.4 µM and 17 µM, respectively.

As to FEGKPALEL, the IC50 with HLA-B*44:03 is at least 70.1 µM.

Consider NITNKRAAL, for which, in the test with HLA-B*07:02, the IC50 was determined as 22.9 µM.

Consider EVAGALELS, for which the IC50 in the test with HLA-B*35:01 came to 69.9 µM.

As to PKPKPKPKA, the IC50 with HLA-B*35:01 came out at 69.9 µM.

As for GKSLKKKNQ, the IC50 with HLA-B*35:01 turned out to be 69.9 µM.

Consider KPLADIAVV, for which, in the test with HLA-B*07:02, the IC50 is 5.56 µM.

On to MAAGHDATL, for which, in the test with HLA-B*53:01, the IC50 was determined as 6.13 µM.

In the case of DHLTGRSCQ, the IC50 in the test with HLA-B*57:01 is at least 70.4 µM.

As to LALQAGDAL, the IC50 in the test with HLA-B*35:01 is 31.5 µM.
